The record followed here is article PMC6024076, “mRNA Deadenylation Is Coupled to Translation Rates by the Differential Activities of Ccr4-Not Nucleases”.

Data set [1] concerns the target GST-Pab1 (S. pombe poly(A)-binding protein Pab1) (S. pombe) (UniProt P31209).
In data set [2] the target is T1, Pab1 (Schizosaccharomyces pombe, UniProt P31209 80-653).
T1 sequence: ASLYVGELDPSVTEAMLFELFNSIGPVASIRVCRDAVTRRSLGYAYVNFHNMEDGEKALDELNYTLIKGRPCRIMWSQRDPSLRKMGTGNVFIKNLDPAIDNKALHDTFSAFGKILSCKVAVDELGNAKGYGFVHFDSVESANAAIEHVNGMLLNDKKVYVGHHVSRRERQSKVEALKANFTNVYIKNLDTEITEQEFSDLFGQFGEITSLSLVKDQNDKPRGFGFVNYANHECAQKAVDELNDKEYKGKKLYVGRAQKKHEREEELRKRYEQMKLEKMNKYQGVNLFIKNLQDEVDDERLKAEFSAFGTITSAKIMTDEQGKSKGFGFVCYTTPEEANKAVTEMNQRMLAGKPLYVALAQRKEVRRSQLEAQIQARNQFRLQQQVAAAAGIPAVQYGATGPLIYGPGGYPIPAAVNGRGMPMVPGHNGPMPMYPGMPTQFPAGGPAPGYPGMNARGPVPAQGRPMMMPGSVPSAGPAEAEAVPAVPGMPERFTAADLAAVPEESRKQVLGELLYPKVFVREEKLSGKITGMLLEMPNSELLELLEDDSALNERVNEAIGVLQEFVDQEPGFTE
Put plainly: fluorescence polarization; FP: 20 mM HEPES pH 7.4, 150 mM NaCl, 22 C, 2 h, 0.2 nM RNA; switchSENSE: same buffer + 0.001% Tween-20, 25 nM Pab1, 20 C; EMSA: 20 mM PIPES pH 6.8, 10 mM KCl, 90 mM NaCl, 2 mM Mg(OAc)2, 0.1 mM TCEP, 22 C, 200 nM RNA. The following applies: protein: recombinant; tags: N-terminal GST cleaved with 3C protease; label: 5' 6-FAM. On the technique in general: Fluorescence polarisation rises when a labelled molecule tumbles more slowly, as on binding a larger partner.

Data set [3] concerns the target T1, Pab1. Put plainly: fluorescence polarization; one-site quadratic fit; printed label order scrambled, assigned by koff/kon; FP: 20 mM HEPES pH 7.4, 150 mM NaCl, 22 C, 2 h, 0.2 nM RNA; switchSENSE: same buffer + 0.001% Tween-20, 25 nM Pab1, 20 C; EMSA: 20 mM PIPES pH 6.8, 10 mM KCl, 90 mM NaCl, 2 mM Mg(OAc)2, 0.1 mM TCEP, 22 C, 200 nM RNA. The settings on record: protein: recombinant; tags: N-terminal GST cleaved with 3C protease; label: 5' 6-FAM.

“S. pombe Ccr4-Not complex (WT), seven core subunits (from UniProt O74874 1-690; O74856 1-335; P87112 1-2100; P87240 1-306; O13870 1-640; Q92368 1-283)” yielded an average rate of deadenylation of 20-mer-A60 RNA by purified Ccr4-Not with Pab1 (two molecules per RNA; GST cleaved) against without Pab1 in data set [1] of 3 fold.

The Kd is the constant that tells how readily two partners part at equilibrium. On to AAAAAAAAAAAA (ssRNA) [A12], for which the Kd in the data set with Pab1 [2] was about 27 nM.

As for AAAAAAAAAAAAAAAAAAAAAAAAAAAAAA (ssRNA) [A30], the equilibrium dissociation constant (Kd) with Pab1 [3] amounted to 0.25 ± 0.03 nM.

Turning to AAAAAAAAAAAAAAAAAAAAAA (ssRNA) [A22], the Kd in the data set with Pab1 [2] was about 0.5 nM.
